Assay results taken from article PMC5376648, “Cell-free reconstitution reveals centriole cartwheel assembly mechanisms” (Nature Communications, 2017).

B1: His-Stag-CrSAS-6_NL(1-503) (domain or fragment, Chlamydomonas reinhardtii, UniProt A9CQL4 1-503, looked up)
chain: MPLLLDDGDPKAQTGFDLSTATTLFWRPVPVHVKQQDREDVLEELTFRILTGVAKQNHNLRILRIHISSDSDLFFLHTLEVSEEDFQSLKNDQGILVDFASFPGKIISLLEKCILAQPGDSPRFQAVLTIRGGESVFKIVEINDFKQLPHITLAFRPGNDSVVKQFLAFRLSEVKGTCHDLSDDLSRTRDDRDSMVAQLAQCRQQLAQLREQYDKHLLEVQAQAKTQQASAHEERIREKSQLKDQFEKERGEMEGRYRDQIAALNTRLGELDTENRKLREVKYELDTKVSELSHKLGSSEGSNRSLEEETARLRSLNQQLSSSKHELEIQLNEAKAKVLALDEKAQSQGDVIEQQRGRLRDMEAALRQTEQRCADLRDTLASAEGRAKEAQAEVLKGNQAIEKLTNDLRLAKEKTKRKAAIILRQEEELQEREQSLANATRDVGVLGQQAESLRKDVASLHSENDSLRSKLEDSKQQLQSNEQMIRWLNQQVTEAQLHASGAT
notes: CrSAS-6 (Bld12p) of Chlamydomonas reinhardtii, residues 1-503; C-terminal truncation that keeps the N-terminal domain and the entire coiled coil; This form was used for cryo-EM and cryo-ET; source: E. coli BL21(DE3), purified (Ni-NTA, size exclusion chromatography)
B2: CrSAS-6_NL(1-503), 6xHis tag cleaved (domain or fragment, Chlamydomonas reinhardtii, UniProt A9CQL4 1-503, looked up)
chain: B1 chain
notes: CrSAS-6 (Bld12p) of Chlamydomonas reinhardtii, residues 1-503; This form was used for negative staining EM; also called 6xHis-CrSAS-6_NL(1-503) (before cleavage)
B3: full-length CrSAS-6 (HisCrSAS-6_FL) (natural protein, Chlamydomonas reinhardtii, UniProt A9CQL4 1-728, looked up)
chain: MPLLLDDGDPKAQTGFDLSTATTLFWRPVPVHVKQQDREDVLEELTFRILTGVAKQNHNLRILRIHISSDSDLFFLHTLEVSEEDFQSLKNDQGILVDFASFPGKIISLLEKCILAQPGDSPRFQAVLTIRGGESVFKIVEINDFKQLPHITLAFRPGNDSVVKQFLAFRLSEVKGTCHDLSDDLSRTRDDRDSMVAQLAQCRQQLAQLREQYDKHLLEVQAQAKTQQASAHEERIREKSQLKDQFEKERGEMEGRYRDQIAALNTRLGELDTENRKLREVKYELDTKVSELSHKLGSSEGSNRSLEEETARLRSLNQQLSSSKHELEIQLNEAKAKVLALDEKAQSQGDVIEQQRGRLRDMEAALRQTEQRCADLRDTLASAEGRAKEAQAEVLKGNQAIEKLTNDLRLAKEKTKRKAAIILRQEEELQEREQSLANATRDVGVLGQQAESLRKDVASLHSENDSLRSKLEDSKQQLQSNEQMIRWLNQQVTEAQLHASGATVAGSRYAFRPSAALPGSMPPPSVAATPAVGLLAAPGPSTAYKPGGTTSRYASTLGVTGLSSGLSGAGATSVGAAVAGGSYGAGGDSSYRPGVGGAYASSGGAGGFGGSVGGGGQVGGSGSAIGAATGAGSALGTYRSSYAASTHPSPGGVTAGMGSTLTTPAVNRYAAGSYSSVSSSLSFGGGLGAARAVDATPAASKYGVGFSNAAMGVVGTVGGAGGTDAQRA
notes: SAS-6 protein Bld12p (CrSAS-6) of Chlamydomonas reinhardtii, full length; A 6xHis tag stands between the Prescission site and CrSAS-6 and remains after cleavage; also called Bld12p; GST-HisCrSAS-6_FL (before cleavage); source: E. coli BL21(DE3), purified (glutathione agarose beads, eluted with Prescission Protease to remove GST); not shown: GST, N-terminal, cleaved; His6, N-terminal, kept

Assays:
[1] = biological target: the molecule itself; assay: cryo-EM and cryo-electron tomography of assemblies formed in a cell-free assay; soluble protein alone (CrSAS-6_FL 10 uM or His-Stag-CrSAS-6_NL 20 uM in 20 mM Tris pH 7.5, 150 mM NaCl) dialysed >16 h against 10 mM K-PIPES pH 7.2; structures formed in solution vitrified and imaged
[2] = biological target: the molecule itself; assay: negative staining EM of assemblies; CrSAS-6_NL diluted in 10 mM K-PIPES pH 7.0 to 3 ug/ml, deposited on carbon-coated grids, stained with 2% uranyl acetate

Row | Protein | binding result [1] | binding result [2]
1 | B1 | binds | –
2 | B2 | – | binds
3 | B3 | binds | –
